Test [1] concerns the target T1, EspB of Citrobacter rodentium (Citrobacter rodentium DBS100).
T1 construct: also called C. rodentium EspB
The test is described as follows: western blot of culture supernatants, detection with mAb-EspB-B7.

Test [2] deals with T2, native EspB of wild-type EPEC.
T2 construct: also called EspB in the assembled T3SS; WT EPEC
The test is described as above.

This note sets out measurements from patent publication US20250277767A1 (RAMOT AT TEL AVIV UNIVERSITY, published 2025).

B1: mAb-EspB-B7 (antibody, V domains shown)
VH: EVQLLESGGGLVQPGGSLRLSCAASGFTFSHYAMNWVRQAPGKGLEWVSAINSNGDSTYYPDTVKDRFTISRDNSKNTLYLQMNSLRAEDTAVYYCARDRRAGYFDYWGQGTLVTVSS
VL: DIVLTQPPSASGTPGQRVTISCSGSRDNIGKNYVSWYQQLPGTAPKLLIYRNNQRPSGVPDRFSGSKSGTSASLAISGLRSEDEADYYCSAWDTSLNAYVFGPGTQLTVL
notes: also called mAb-B7; EspB-specific monoclonal antibody
On to B1, for which the binding result in test [1] and in test [2] was “binds” each time.
